{"source": "patent US20120329717A1", "key": {"[1]": {"target": "N-type VGCCs controlling excitatory synaptic transmission between primary afferents and dorsal horn (rat) (UniProt Q02294)", "sequence (Q02294 whole entry)": "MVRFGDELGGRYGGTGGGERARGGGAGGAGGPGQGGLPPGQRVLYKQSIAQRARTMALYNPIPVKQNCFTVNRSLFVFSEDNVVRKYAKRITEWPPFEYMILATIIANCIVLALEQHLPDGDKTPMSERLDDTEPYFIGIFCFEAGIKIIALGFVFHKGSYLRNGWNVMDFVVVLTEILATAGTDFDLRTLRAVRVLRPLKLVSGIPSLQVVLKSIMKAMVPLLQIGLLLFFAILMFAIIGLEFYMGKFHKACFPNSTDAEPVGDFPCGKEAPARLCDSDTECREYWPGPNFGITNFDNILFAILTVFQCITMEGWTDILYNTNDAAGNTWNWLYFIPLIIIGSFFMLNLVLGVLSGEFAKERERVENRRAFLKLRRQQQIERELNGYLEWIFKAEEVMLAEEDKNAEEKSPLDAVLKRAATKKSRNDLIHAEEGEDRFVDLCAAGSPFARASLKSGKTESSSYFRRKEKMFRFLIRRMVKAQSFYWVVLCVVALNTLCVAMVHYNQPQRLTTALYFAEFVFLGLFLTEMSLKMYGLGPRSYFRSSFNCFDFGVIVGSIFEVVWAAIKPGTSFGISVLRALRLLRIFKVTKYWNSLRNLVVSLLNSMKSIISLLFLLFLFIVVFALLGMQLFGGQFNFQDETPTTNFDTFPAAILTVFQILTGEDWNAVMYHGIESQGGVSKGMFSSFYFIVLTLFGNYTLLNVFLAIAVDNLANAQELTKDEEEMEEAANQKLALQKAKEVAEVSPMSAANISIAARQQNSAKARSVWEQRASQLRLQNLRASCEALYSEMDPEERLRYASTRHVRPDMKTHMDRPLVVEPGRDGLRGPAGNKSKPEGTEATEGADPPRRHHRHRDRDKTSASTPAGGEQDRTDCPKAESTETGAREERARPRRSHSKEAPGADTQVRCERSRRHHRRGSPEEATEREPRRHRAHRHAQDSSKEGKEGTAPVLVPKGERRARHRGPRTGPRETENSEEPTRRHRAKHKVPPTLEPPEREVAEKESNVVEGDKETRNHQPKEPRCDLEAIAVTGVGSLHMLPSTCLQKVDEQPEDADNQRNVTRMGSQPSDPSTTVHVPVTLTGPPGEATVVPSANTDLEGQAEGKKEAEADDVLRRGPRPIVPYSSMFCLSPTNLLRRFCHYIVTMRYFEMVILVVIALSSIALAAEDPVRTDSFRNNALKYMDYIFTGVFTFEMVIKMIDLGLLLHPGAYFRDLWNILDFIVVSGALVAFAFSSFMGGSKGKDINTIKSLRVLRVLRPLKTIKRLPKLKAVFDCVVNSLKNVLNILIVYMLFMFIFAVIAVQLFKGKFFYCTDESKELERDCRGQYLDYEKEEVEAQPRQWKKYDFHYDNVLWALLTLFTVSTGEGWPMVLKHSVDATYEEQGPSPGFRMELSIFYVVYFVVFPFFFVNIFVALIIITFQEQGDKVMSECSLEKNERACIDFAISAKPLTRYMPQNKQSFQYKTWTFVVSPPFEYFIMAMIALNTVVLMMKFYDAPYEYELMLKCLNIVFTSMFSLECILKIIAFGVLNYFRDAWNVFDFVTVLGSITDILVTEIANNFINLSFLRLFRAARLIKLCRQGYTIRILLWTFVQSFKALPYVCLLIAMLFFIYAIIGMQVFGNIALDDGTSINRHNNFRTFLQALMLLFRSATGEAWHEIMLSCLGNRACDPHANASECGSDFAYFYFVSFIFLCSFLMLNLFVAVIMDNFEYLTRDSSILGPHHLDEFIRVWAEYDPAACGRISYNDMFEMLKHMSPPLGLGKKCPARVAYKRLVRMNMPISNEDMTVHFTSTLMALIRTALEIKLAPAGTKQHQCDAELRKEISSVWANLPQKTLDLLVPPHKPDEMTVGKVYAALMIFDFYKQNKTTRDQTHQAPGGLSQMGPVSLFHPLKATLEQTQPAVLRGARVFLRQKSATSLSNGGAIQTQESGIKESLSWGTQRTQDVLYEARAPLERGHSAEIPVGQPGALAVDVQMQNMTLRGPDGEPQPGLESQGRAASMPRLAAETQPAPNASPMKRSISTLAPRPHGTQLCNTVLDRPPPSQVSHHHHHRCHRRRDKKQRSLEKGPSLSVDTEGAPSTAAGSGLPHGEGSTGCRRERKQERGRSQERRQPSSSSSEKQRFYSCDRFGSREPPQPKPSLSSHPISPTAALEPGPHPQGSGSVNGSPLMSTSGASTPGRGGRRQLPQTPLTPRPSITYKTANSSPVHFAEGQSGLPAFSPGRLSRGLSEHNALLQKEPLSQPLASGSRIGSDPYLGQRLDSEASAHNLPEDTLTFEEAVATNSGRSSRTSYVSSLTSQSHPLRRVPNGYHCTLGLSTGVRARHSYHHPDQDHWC", "test": "cell-based or functional assay"}, "[2]": {"target": "N-type VGCCs in rat brain membranes (rat) (UniProt Q02294)", "sequence (Q02294 whole entry)": "as above", "test": "displacement of 125I-GVIA from rat brain membranes"}, "[3]": {"target": "N-type VGCCs in rat brain membranes (rat), Q02294", "sequence (Q02294 whole entry)": "as above", "test": "displacement of 125I-GVIA from rat brain membranes"}, "[4]": {"target": "N-type VGCCs controlling excitatory synaptic transmission between primary afferents and dorsal horn (rat), Q02294", "sequence (Q02294 whole entry)": "as above", "test": "cell-based or functional assay"}}}
{"molecule": "ω-conotoxin CVIE (peptide)", "values": [{"measurement": "EPSC amplitude recovered 10-15 min after washout, percent of control", "setting": "[1]", "value": 78, "unit": "%"}, {"measurement": "affinity", "setting": "[2]", "value": 37, "unit": "µM"}, {"measurement": "pIC50", "setting": "[2]", "value": 10.7, "unit": "M"}]}
{"molecule": "CKSKGAKCSKLMYDCCSGSCSGTVGRC (modifications not checked)", "note": "[ω-conotoxin CVID, P58920 46-72]", "values": [{"measurement": "affinity", "setting": "[3]", "value": 12, "unit": "µM"}, {"measurement": "pIC50", "setting": "[3]", "value": 11, "unit": "M"}]}
{"molecule": "CKGKGASCRRTSYDCCTGSCRSGRC (modifications not checked)", "note": "[ω-conotoxin CVIF]", "values": [{"measurement": "EPSC amplitude recovered 10-15 min after washout, percent of control", "setting": "[4]", "value": 73, "unit": "%"}, {"measurement": "affinity", "setting": "[3]", "value": 98, "unit": "µM"}, {"measurement": "pIC50", "setting": "[3]", "value": 10.6, "unit": "M"}]}
{"molecule": "CKSPGSSCSPTSYNCCRSCNPYTKRCY (modifications not checked)", "note": "[ω-conotoxin GVIA, P01522 46-72]", "values": [{"measurement": "affinity", "setting": "[3]", "value": 24, "unit": "µM"}, {"measurement": "pIC50", "setting": "[3]", "value": 10.6, "unit": "M"}]}
